Data reported in article PMC4974474.
Blank lines part the entries; values can stand above or below the substance they belong to.

Legend:
POC1 = assay: SAXS; each POC alone, 50 μM; oligomeric state from the total scattering
POC2 = assay: as above
POC3 = assay: as above
POC1+POC2+POC3 assembly = assay: SAXS; POC1+POC2+POC3 (1:1:1) at 50 μM; beamline B21, Diamond Light Source

stoichiometry N (POC1): 2
Substance: POC1

stoichiometry N (POC2): 3
Substance: POC2

stoichiometry N (POC3): 3
Substance: POC3

stoichiometry N (POC1+POC2+POC3 assembly): 2
Substance: POC1+POC2+POC3 assembly (complex)
